Source: US10588972B2, “Phthalocyanine probes and uses thereof” (LI-COR, INC., priority 2014, dated 2020)

Key:
Type in all cases: cell-based
A431 cells = assay: Caspase 3/7 assay, doses of IRDye 700DX-labeled EGF (Table 4)
Protocol: A431 cells were treated with IRDye® 700DX-labeled EGF at a concentration of about 0.1-1 μM for about 8 minutes and irradiated at about 32 J/cm^2.
Briefly, 150,000 cells were plated and incubated overnight at 37° C., 5% CO2. About 1 ml of the probe was added to the appropriate treatments. The cells were rinsed after the incubation period and imaged. The cells were irradiated with a small LED apparatus. The cells were further incubated at 37° C., 5% CO2, and then imaged at 2-3 hours post irradiation. The cells were then harvested and resuspended in 250 μl PBS. The cells were counted in NC-100™ NucleoCounter® (ChemoMetec A/S; Allerod, Denmark). The cells were analyzed according to manufacturer's protocol to perform the caspase3/7 assay (ImmunoChemistry Technologies, LCC, Bloomington, Minn.). NC indicates negative control, e.g., no probe.

HTB-186 cells [1] = assay: Caspase 3/7 assay (Example 10, Table 8); settings: 32 J/cm^2, probe about 5 hours, 20 hours post irradiation; 700DX-RGD and 700DX-EGF 500 nM
Protocol: (§1) This example illustrates the ability of IRDye® 700DX small molecule conjugates to induce apoptosis in cells, e.g., cancer cells. In this study HTB-186 cells (a desmoplastic cerebellar medulloblastoma cell line) were treated with IRDye® 700DX small molecule conjugates (IRDye® 700DX labeled chlorotoxin, anti-EGFR Affibody®, RGD peptide and EGF ligand). Apoptosis was measured by evaluating caspase 3/7 activity and mitochondrial membrane potential. […]
The caspase 3/7 assay was used to measure caspase 3/7 activity in the cells from the treatments listed above. […] Upon activation, the caspases cleave the substrate, and in turn, a fluorescence signal is emitted. […] The fluorescence can be detected by, for example, flow cytometry, fluorescence microscopy, and fluorescence-based image cytometry.
To determine whether the treated cells are undergoing apoptosis, a caspase 3/7 assay and mitochondrial potential assay were performed. […] Table 8 below provides cells number, % viability, JC-1% shift, and % late apoptotic and dead cells as determined by caspase 3/7 assay.

HTB-186 cells [2] = assay: JC-1 mitochondrial membrane potential assay (Example 10, Table 8); settings: 32 J/cm^2, probe about 5 hours, 20 hours post irradiation; 700DX-RGD and 700DX-EGF 500 nM
Protocol: as §1
In this study a mitochondrial membrane potential assay was performed on cells from treatments 1-8 to determine whether the treated cells underwent apoptosis. […] As JC-1 dye accumulated in mitochondria, its fluorescence emission shifts from green (about 529 nm) to red (about 590 nm). The presence of red fluorescence due to JC-1 aggregate formation corresponds to regions of high mitochondrial polarization. Depolarized mitochondria are indicated by green fluorescence of the JC-1 monomers. A detectable decrease in the red/green fluorescence intensity ratio indicates mitochondrial depolarization, and thus, apoptosis. In a membrane potential assay, cells are incubated with the JC-1 dye and fluorescence is detected by, for example, flow cytometry, fluorescence microscopy, and fluorescence-based image cytometry. […]

HTB-186 cells [3] = assay: Viability, cell number and microscopy morphology at 20 h post irradiation (Example 10)
Protocol: This example illustrates the ability of IRDye® 700DX small molecule conjugates to induce apoptosis in cells, e.g., cancer cells. In this study HTB-186 cells (a desmoplastic cerebellar medulloblastoma cell line) were treated with IRDye® 700DX small molecule conjugates (IRDye® 700DX labeled chlorotoxin, anti-EGFR Affibody®, RGD peptide and EGF ligand). Apoptosis was measured by evaluating caspase 3/7 activity and mitochondrial membrane potential. Apoptosis can be characterized by a variety of cell morphological and biochemical changes including membrane blebbing, cell shrinkage, alteration of membrane asymmetry and permeability, and/or condensation of chromatin and nucleus (Coleman et al., Nat Cell Biol, 2001, 3(4):339-45, Bortner and Cidlowski, Biochem Pharmacol, 1998, 56(12):1549-59; van Engeland et al., Experimental Cell Research, 1997, 235:421-430).
Microscopy images of cells in petri-dishes were captured at 20 h post irradiation. The images were captured in DIC and 700 nm to visualize the probe, and composite images were generated (DIC+700 nm) to visualize the overlay.
To determine whether the treated cells are undergoing apoptosis, a caspase 3/7 assay and mitochondrial potential assay were performed. All cells from each treatment were recovered and processed accordingly. Table 8 below provides cells number, % viability, JC-1% shift, and % late apoptotic and dead cells as determined by caspase 3/7 assay.

[4] = 0.25 μM, Irradiation about 32 J/cm^2
[5] = 0.5 μM, Irradiation about 32 J/cm^2
[6] = 1 μM, Irradiation about 32 J/cm^2
[7] = 32 J/cm^2, probe about 5 hours, 20 hours post irradiation, 700DX-RGD and 700DX-EGF 500 nM

B1: 700DX-EGF (conjugate, UniProt P01133 23-1207, looked up)
Pro-epidermal growth factor: PQHWSCPEGTLAGNGNSTCVGPAPFLIFSHGNSIFRIDTEGTNYEQLVVDAGVSVIMDFHYNEKRIYWVDLERQLLQRVFLNGSRQERVCNIEKNVSGMAINWINEEVIWSNQQEGIITVTDMKGNNSHILLSALKYPANVAVDPVERFIFWSSEVAGSLYRADLDGVGVKALLETSEKITAVSLDVLDKRLFWIQYNREGSNSLICSCDYDGGSVHISKHPTQHNLFAMSLFGDRIFYSTWKMKTIWIANKHTGKDMVRINLHSSFVPLGELKVVHPLAQPKAEDDTWEPEQKLCKLRKGNCSSTVCGQDLQSHLCMCAEGYALSRDRKYCEDVNECAFWNHGCTLGCKNTPGSYYCTCPVGFVLLPDGKRCHQLVSCPRNVSECSHDCVLTSEGPLCFCPEGSVLERDGKTCSGCSSPDNGGCSQLCVPLSPVSWECDCFPGYDLQLDEKSCAASGPQPFLLFANSQDIRHMHFDGTDYGTLLSQQMGMVYALDHDPVENKIYFAHTALKWIERANMDGSQRERLIEEGVDVPEGLAVDWIGRRFYWTDRGKSLIGRSDLNGKRSKIITKENISQPRGIAVHPMAKRLFWTDTGINPRIESSSLQGLGRLVIASSDLIWPSGITIDFLTDKLYWCDAKQSVIEMANLDGSKRRRLTQNDVGHPFAVAVFEDYVWFSDWAMPSVMRVNKRTGKDRVRLQGSMLKPSSLVVVHPLAKPGADPCLYQNGGCEHICKKRLGTAWCSCREGFMKASDGKTCLALDGHQLLAGGEVDLKNQVTPLDILSKTRVSEDNITESQHMLVAEIMVSDQDDCAPVGCSMYARCISEGEDATCQCLKGFAGDGKLCSDIDECEMGVPVCPPASSKCINTEGGYVCRCSEGYQGDGIHCLDIDECQLGEHSCGENASCTNTEGGYTCMCAGRLSEPGLICPDSTPPPHLREDDHHYSVRNSDSECPLSHDGYCLHDGVCMYIEALDKYACNCVVGYIGERCQYRDLKWWELRHAGHGQQQKVIVVAVCVVVLVMLLLLSLWGAHYYRTQKLLSKNPKNPYEESSRDVRSRRPADTEDGMSSCPQPWFVVIKEHQDLKNGGQPVAGEDGQAADGSMQPTSWRQEPQLCGMGTEQGCWIPVSSDKGSCPQVMERSFHMPSYGTQTLEGGVEKPHSLLSANPLWQQRALDPPHQMELTQ
modifications: Pro-epidermal growth factor IRDye 700DX conjugate
Early % Apoptotic (A431 cells; [4]): 5%
Late % Apoptotic (A431 cells; [4]): 18%
% Healthy (A431 cells; [5]): 52%
% Necrotic (A431 cells; [5]): 17%
Cells/mL (A431 cells; [5]): 4 × 10^5 Cells/mL
Early % Apoptotic (A431 cells; [5]): 6%
Late % Apoptotic (A431 cells; [5]): 26%
% Healthy (A431 cells; [6]): 52%
% Necrotic (A431 cells; [6]): 15%
Cells/mL (A431 cells; [6]): 4 × 10^5 Cells/mL
Early % Apoptotic (A431 cells; [6]): 9%
Late % Apoptotic (A431 cells; [6]): 24%
% Healthy (A431 cells; 1 μM, No Irradiation): 87%
% Necrotic (A431 cells; 1 μM, No Irradiation): 3%
Cells/mL (A431 cells; 1 μM, No Irradiation): 5.4 × 10^5 Cells/mL
Early % Apoptotic (A431 cells; 1 μM, No Irradiation): 6%
Late % Apoptotic (A431 cells; 1 μM, No Irradiation): 4%
mode of cell death (A431 cells; irradiating light at about 32 J/cm^2): undergo apoptosis
Caspase 3 % late apoptotic + dead cells (HTB-186 cells [1]): 46%
JC-1 % shift (HTB-186 cells [2]): 42%
cell morphology (HTB-186 cells [3]; 32 J/cm^2, 20 h post irradiation): appeared rounded and smaller
% Viability (HTB-186 cells [3]; [7]): 75.7%
Cell # (HTB-186 cells [3]; [7]): 0.7E6
